Experimental data taken from the Immune Epitope Database (IEDB).
pKd: −log10 of the molar value.

What was measured:
Assay in all cases: IEDB peptide-MHC binding, purified MHC/competitive/fluorescence; filed as Kd, often an IC50 or EC50 that approximates it; ≥ and ≤ were set here for values at or beyond the usual limits of such assays
Conditions in all cases: source organism: Cryptosporidium parvum Iowa II
HLA-B*51:01 = target: HLA-B*51:01
HLA-B*14:02 = target: HLA-B*14:02
HLA-B*07:02 = target: HLA-B*07:02
HLA-A*01:01 = target: HLA-A*01:01
HLA-B*53:01 = target: HLA-B*53:01
HLA-B*27:05 = target: HLA-B*27:05
HLA-A*11:01 = target: HLA-A*11:01

Measured: pKd

TVFRNQNRV
≤ 5.30: HLA-B*51:01 | HLA-B*14:02 | HLA-B*07:02 | HLA-A*01:01 | HLA-B*53:01 | HLA-B*27:05 | HLA-A*11:01
